Residue numbers refer to the chain shown, from its start. Entries after “also recorded” stand apart in the source; their conditions may differ. Each block holds one molecule with its values, some of them ahead of it.
Key:
FcγRIIa = experiment: Phosphorylation of FcγRIIa during platelet activation (immunoprecipitation, Western blot with anti-phosphotyrosine 4G10); format: cell-based, human
Experimental: FIGS. 1A-1E are western blots and graphs showing that platelet activation results in FcγRIIa being phosphorylated: Platelets (2×10^8 in 0.5 ml) from low-risk subjects isolated with the use of gel filtration were exposed to no agonist (FIG. 1E) or to thrombin (50 nM) (FIG. 1A), convulxin (10 ng/ml) (FIG. 1B), ADP (25 μM) (FIG. 1C), and PAF (100 nM) (FIG. 1D) for selected intervals before preparation of platelet lysates. FcγRIIa was separated by immunoprecipitation and Western blots were probed with an antiphosphotyrosine antibody (4G10), stripped, and re-probed with anti-FcγRIIa to confirm equal loading (data not shown). Fluorescence intensity of bands was quantified with the use of a Li-Cor system. Results (n=3-5 for each condition) are peak intensity that is not altered by adjusting the contrast of the image or the size of the area of interest, and were compared with those obtained when no agonist was used (Student's t test, *p<0.05, **p<0.01). […]
Immunoprecipitation was performed overnight at 4° C. with the use of goat anti-CD32A/C (Santa Cruz Biotechnology, Santa Cruz, Calif.) or a mouse anti-phosphotyrosine conjugated with magnetic beads (4G10, Millipore, Billerica, Mass.). […] Bands were detected with the use of use of a Li-Cor Odyssey Infrared Imaging system (Li-Cor Biosciences, Lincoln, Nebr.) or chemiluminescence (Amersham/General Electric Healthcare, Piscataway, N.J.).

[1] = biological target: FcγRIIa on non-fixed human platelets (also as present in platelet lysates) (human) (UniProt P12318); experiment: cell-based or functional assay
Megakaryocyte cell line = experiment: IFNγ effect on FcγRIIa expression by megakaryocyte cell line; format: cell-based; details: IFNγ treatment, FIG. 10
From the text: The graphs on the lower aspect of the figure show evidence of differentiation of the stem cells into megakaryocytes.

[2] = test system: human stem cell derived Megakaryocytes; experiment: IFNγ effect on FcγRIIa expression by human stem cell derived megakaryocytes; format: cell-based; details: IFNγ treatment, FIG. 11
From the text: The graphs on the lower aspect of the figure show evidence of differentiation of the cells into megakaryocytes.

[3] = biological target: T1, FcγRIIa on formaldehyde-fixed human platelets (human, UniProt P12318 34-317, exposed to formaldehyde fixative (residues not stated)); experiment: platelets of two subjects, fixed (FIG. 29)
T1 construct: Same receptor as m3, but on platelets fixed before exposure to the antibody; also called FcγRIIa on fixed platelets
T1 sequence: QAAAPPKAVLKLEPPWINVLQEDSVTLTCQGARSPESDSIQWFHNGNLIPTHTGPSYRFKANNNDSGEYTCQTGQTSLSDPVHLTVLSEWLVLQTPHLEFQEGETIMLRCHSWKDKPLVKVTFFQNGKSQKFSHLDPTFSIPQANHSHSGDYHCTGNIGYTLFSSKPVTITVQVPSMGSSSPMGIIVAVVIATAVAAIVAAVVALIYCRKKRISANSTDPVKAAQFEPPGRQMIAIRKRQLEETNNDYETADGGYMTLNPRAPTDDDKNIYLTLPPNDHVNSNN

[4] = biological target: T2, FcγRIIa on non-fixed human platelets (also as present in platelet lysates) (human, UniProt P12318 34-317); experiment: platelets of two subjects, non-fixed (FIG. 29)
T2 construct: Endogenous receptor of platelets from human subjects; In immunoprecipitation experiments the receptor came from platelet lysates; also called platelet FcγRIIa; CD32
T2 sequence: T1 sequence

FcγRIIa on platelets = biological target: T3, FcγRIIa on platelets (Homo sapiens, UniProt P12318); experiment: Flow cytometry binding/quantification of FcγRIIa on fixed and non-fixed platelets; details: FIG. 29
T3 construct: endogenous in cells; host or cells: platelets from subjects' blood samples, formaldehyde-fixed or non-fixed
T3 sequence (P12318 34-317): T1 sequence with G54Q
From the text: One objective was to identify an antibody that was capable of quantifying FcγRIIa on the surface of platelets that were fixed, similar to quantification of FcγRIIa on non-fixed platelets. To make this assessment, selected antibodies were fluorochrome labeled. An objective was to identify a clone that could quantify FcγRIIa on the surface of fixed platelets within 10% of the quantification of previously-known antibodies on non-fixed platelets. Based on these experiments, two clones were identified, they produced the antibodies FcYRIIa-5G1 and FcYRIIa-11F9 described above.
Lysis of red blood cells can also be performed by the addition of 3% acetic acid (120 μl) to 5 μl of blood. • Incubate for 15 minutes • Add 800 μl PBS • Centrifuge for 2 minutes at 1,200 g • Decant liquid • Re-suspend platelet pellet in 1,000 μl PBS • Centrifuge for 2 minutes at 1,200 g • Decant liquid • Re-suspend platelet pellet in 1,000 μl PBS • Centrifuge for 2 minutes at 1,200 g • Re-suspend platelet pellet in 800 μl PBS with 0.2% BSA and store platelets at room temperature for at least 1 hour before assay (blocking step) • Assay tube final volume=35 μl, adding: • 5 μl of re-suspended platelet • 0.5 μg of 5G1-PE antibody • 2 μl of CD42bPECy5 (Becton Dickinson) • QS with PBS/BSA 0.2% • Incubate antibodies and platelets for 1 hours at room temperature • Dilute with 500 μl of PBS • Analyze with flow cytometry
• Analyze platelet samples using template 032522 FCquant 5G1R-PE 375V_T. Set acquisition volume to 200 ul and run samples at 200 ul/min. count 10,000 events in platelet gate (CD42b positive events). • Platelets are first gated on a FSC SSC plot • A second gate for CD42b PECY5 positive events is created • A histogram plot gated on the CD42b positive events is created. A gate is set to the right of a non-immune IgG control. The x-mean of the histogram gate positive for 5G1R-PE binding is reported • Assay tube for IgG control, adding: • 5 μl of re-suspended platelet • 2 μl of IgG-PE • 2 μl of CD42bPECy5 (Becton Dickinson) • 26 μl PBS/BSA 0.2% […]

[5] = biological target: T2, FcγRIIa on non-fixed human platelets …; experiment: immunoprecipitation with platelet lysates
[6] = biological target: T1, FcγRIIa on formaldehyde-fixed human …; experiment: fluorochrome labeled antibody on fixed platelets

Molecule: Nc1ncnc2c1ncn2[C@@H]1O[C@H](COP(=O)(O)OP(=O)(O)O)[C@@H](O)[C@H]1O [ADP, adenosine diphosphate]
time after exposure at which phosphorylation of FcγRIIa was greatest (FcγRIIa; platelets from low-risk subjects, thrombin 50 nM, convulxin 10 ng/ml, ADP 25 μM, PAF 100 nM): 3 to 5 min

Molecule: CC(C)(C)n1nc(-c2ccc(Cl)cc2)c2c(N)ncnc21 [PP2]
phosphorylation of FcγRIIa during platelet activation (FcγRIIa; IV.3 Fab 100 μg/ml, PP2 20 μM): prevented phosphorylation of FcγRIIa

Molecule: CCCCS(=O)(=O)N[C@@H](Cc1ccc(OCCCCC2CCNCC2)cc1)C(=O)O [tirofiban]
agonist-induced activation of platelets (platelets; agonists thrombin, convulxin, ADP, PAF, PAC-1 binding or P-selectin, IV.3 100 μg/ml, PP2 20 μM, tirofiban 0.5 μg/ml): did not attenuate the activation of platelets | activation of platelets caused by coagulation Factor XIII (platelets; summary in words): abolished | amplification of platelet activation induced by fibrinogen (platelets; summary in words): not by tirofiban | binding of PAC-1 to platelets (platelets; tirofiban 0.5 μg/ml): blocked completely the binding of PAC-1 to platelets; also recorded: abolished binding of PAC-1 to platelets | agonist-induced surface expression of P-selectin (platelets; tirofiban, n=3 subjects, FIG. 5D): did not attenuate agonist-induced P-selectin expression

Molecule: Fab fragment of IV.3
ADP induced activation of platelets with added fibrinogen after pretreatment with IV.3 (100 µg/ml), fold induction [1]: 0.9 fold | ADP-induced activation of platelets with added Factor XIII after pretreatment with IV.3 (100 µg/ml), fold induction [1]: 0.7 fold

Molecule: IFNγ: cytokine that increases FcγRIIa expression by megakaryocytes
expression of FcγRIIa by Megakaryocyte cell line (Megakaryocyte cell line): increases the expression of FcγRIIa | expression of FcγRIIa by human stem cell derived Megakaryocytes [2]: increases the expression of FcγRIIa

B1: Antibody FcYRIIa-5G1 (antibody, V domains shown)
VH: EVQLQESGPELVKPGASVKISCKASGYTFTTYYIHWVKQRPGQGLEWIGWIFPGSSNTFYNEKFKGKATLTADTSAITAYMQLNSLTSEDSAVYFCSRYYYDYGYWGQGTLVTVSA
VL: ENVLTQSPAIMSASPGEKVTMTCSASSSVRYMQWYQQKSNTSPKLWIYDTSKLASGVPGRFSGSGSGNSYFLTISSMEAEDVATYHCFQGSGYPLTFGGGTKLEIK
notes: Monoclonal antibody from a mouse hybridoma; Fluorochrome (phycoerythrin) labelled for flow cytometry; also called 5G1 antibody; 5G1-PE
binding result [3]: binds | binding result [4]: binds

B2: FcYRIIa-5G1: monoclonal antibody binding FcγRIIa; heavy chain SEQ ID NO 4, light chain SEQ ID NO 9 (antibody, V domains shown)
VH: B1 VH
VL: B1 VL
binding to FcγRIIa on fixed platelets compared with non-fixed platelets (FcγRIIa on platelets): binds to a greater extent to FcγRIIa on fixed platelets | binding to FcγRIIa on fixed platelets (FcγRIIa on platelets; fixed platelets, two subjects): binds at a higher level on fixed platelets | binding to FcγRIIa on non-fixed platelets versus commercially available antibody FLI8.26 (FcγRIIa on platelets; non-fixed platelets, two subjects): binds to a lesser extent than the commercially available antibody

Continued, values first:

ADP-induced activation of platelets (surface expression of P-selectin), fold induction [1]: 3.9 fold
Molecule: coagulation Factor XIII (from UniProt P00488 2-732) (enzyme)

ADP induced activation of platelets (surface expression of P-selectin), fold induction [1]: 1.5 fold
Molecule: fibrinogen (from UniProt P02671 20-629; P02675 31-491; P02679 27-437)

binding result [5]: binds | binding result [6]: binds
B3: Antibody FcYRIIa-11F9 (antibody, V domains shown)
VH: EVQLQESGPELVKPGASVRISCKASGYTFTNSYMHWVKQRPGQGLEWIGWIYPENINTYYNEKFKGKATLTADRSSSTAYMQLNSLASEDSAVYFCARFYYGFGYWGQGTTLTVSS
VL: DIVMTQSHKFMSTSVGDRVIITCKASQNVISAVAWYQQKPGHSPKLLIYWASTRHTGVPDRFTGSGSGTDFTLTINSVQSEDLADYFCQQYGRYPYTFAGGTKLEIK
notes: Monoclonal antibody from a mouse hybridoma; also called 11F9 antibody
